Two molecules from patent US20150098945A1 (Daiichi Sankyo, published 2015) can be followed below.

The target of test [1] is T1, mouse ROBO4 (pCI-mROBO4-transfected HEK293 cells) (mouse, UniProt Q8C310 28-1012).
T1 sequence: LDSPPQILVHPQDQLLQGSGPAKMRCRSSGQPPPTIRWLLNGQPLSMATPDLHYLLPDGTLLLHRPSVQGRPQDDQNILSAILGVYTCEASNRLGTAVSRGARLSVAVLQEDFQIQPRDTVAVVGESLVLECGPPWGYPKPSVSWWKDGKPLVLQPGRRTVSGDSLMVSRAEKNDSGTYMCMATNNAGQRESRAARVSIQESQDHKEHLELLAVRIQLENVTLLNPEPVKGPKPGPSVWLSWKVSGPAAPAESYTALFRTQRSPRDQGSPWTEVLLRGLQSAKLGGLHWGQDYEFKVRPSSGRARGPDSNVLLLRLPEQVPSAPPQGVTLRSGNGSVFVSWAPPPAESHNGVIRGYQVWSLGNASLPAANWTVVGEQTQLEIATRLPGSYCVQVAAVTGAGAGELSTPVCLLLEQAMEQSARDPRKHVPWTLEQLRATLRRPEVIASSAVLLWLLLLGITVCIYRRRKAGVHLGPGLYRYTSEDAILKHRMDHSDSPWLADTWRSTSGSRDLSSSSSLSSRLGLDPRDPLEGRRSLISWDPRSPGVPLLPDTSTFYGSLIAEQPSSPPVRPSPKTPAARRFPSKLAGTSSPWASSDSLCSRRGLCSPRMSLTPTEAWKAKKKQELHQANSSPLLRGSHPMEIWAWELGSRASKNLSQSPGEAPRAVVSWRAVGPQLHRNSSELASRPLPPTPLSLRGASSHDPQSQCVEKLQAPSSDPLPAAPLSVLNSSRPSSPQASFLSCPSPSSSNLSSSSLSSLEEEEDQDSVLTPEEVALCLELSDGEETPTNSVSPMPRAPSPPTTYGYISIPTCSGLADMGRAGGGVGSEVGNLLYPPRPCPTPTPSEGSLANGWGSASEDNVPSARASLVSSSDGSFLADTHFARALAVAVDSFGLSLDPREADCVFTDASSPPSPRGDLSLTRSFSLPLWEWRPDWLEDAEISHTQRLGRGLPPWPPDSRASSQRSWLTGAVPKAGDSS
Nature of the test: flow cytometry (FC500), HEK293 cells transfected with pCI-mROBO4, FITC goat anti-human IgG Fc; control histogram IgG (human IgG). (In general: A flow cytometer gives signals particle by particle.)

Test [2] concerns the target T2, full-length human ROBO4 (pCI-hROBO4-transfected HEK293/HEK293T cells) (human, UniProt Q8WZ75 28-1007).
T2 sequence: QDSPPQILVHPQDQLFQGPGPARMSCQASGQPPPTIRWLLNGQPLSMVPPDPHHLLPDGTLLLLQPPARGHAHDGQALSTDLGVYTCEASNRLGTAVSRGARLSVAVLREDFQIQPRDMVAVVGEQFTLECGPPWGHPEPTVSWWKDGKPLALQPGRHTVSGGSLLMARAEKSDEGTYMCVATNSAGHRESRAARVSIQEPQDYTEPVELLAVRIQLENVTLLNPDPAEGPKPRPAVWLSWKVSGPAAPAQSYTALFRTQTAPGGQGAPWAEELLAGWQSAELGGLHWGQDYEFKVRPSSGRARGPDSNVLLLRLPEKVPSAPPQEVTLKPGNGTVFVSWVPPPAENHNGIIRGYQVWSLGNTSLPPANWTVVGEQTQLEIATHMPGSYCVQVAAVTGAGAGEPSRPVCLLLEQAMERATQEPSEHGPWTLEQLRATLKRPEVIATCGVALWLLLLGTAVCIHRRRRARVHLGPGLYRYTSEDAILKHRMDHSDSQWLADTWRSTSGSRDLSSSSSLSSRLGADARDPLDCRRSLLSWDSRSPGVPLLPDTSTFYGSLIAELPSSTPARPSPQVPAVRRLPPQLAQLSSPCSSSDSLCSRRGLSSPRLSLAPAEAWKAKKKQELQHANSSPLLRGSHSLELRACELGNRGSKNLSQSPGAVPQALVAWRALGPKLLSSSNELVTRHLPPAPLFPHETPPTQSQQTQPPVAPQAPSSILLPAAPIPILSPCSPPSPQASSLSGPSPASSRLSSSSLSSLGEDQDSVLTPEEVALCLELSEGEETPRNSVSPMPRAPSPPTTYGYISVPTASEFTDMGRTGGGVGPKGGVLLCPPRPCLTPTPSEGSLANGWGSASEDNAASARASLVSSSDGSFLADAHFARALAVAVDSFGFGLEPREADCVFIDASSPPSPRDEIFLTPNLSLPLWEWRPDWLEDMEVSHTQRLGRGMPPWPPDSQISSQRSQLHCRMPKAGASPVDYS
Briefly: flow cytometry, HEK293 cells transfected with pCI-hROBO4, antibody at 10 µg/mL, anti-mouse IgG FITC; control histogram IgG (Mouse IgG2a). Here is the method: HEK293 cells were inoculated at a concentration of 1.5×10⁶ cells/dish to a 60-mm dish (manufactured by Corning Inc.) and cultured overnight in a DMEM medium containing 10% FBS at 37° C. under 5% CO₂ conditions. On the next day, the HEK293 cells were transfected with pCI-hROBO4, pCI-mROBO4, pCI-raROBO4, pCI-FLAG-cynoROBO4-1, pCI-FLAG-cynoROBO4-2, pCI-hROBO1, pCI-hROBO2, or pCI-hROBO3 using FuGENE6 Transfection Reagent and further cultured overnight at 37° C. under 5% CO₂ conditions. On the next day, the expression vector-transfected cells were treated with TrypLE Express (manufactured by Life Technologies Corp.), washed with PBS containing 5% FBS, and then suspended in PBS containing 5% FBS. The obtained cell suspension was used in flow cytometry analysis.
Each cell suspension prepared in 4)-3-1 was centrifuged, and the supernatant was removed. Then, MAb1 or a negative control Mouse IgG2a was added at a concentration of 10 μg/mL to 2×10⁵ expression vector-transfected cells, and the resulting suspension was left standing at 4° C. for 1 hour. […] Data was analyzed using Flowjo. The histogram of FITC fluorescence intensity was prepared. The antibody was determined to bind in a cross-species manner when the histogram of MAb1 was shifted to a stronger fluorescence intensity region compared with the histogram of the negative control Mouse IgG2a.

B1: humanized MAb1 antibody H-2143 (antibody, human IgG2, kappa, V domains shown)
VH: EVQLVESGGGLVQPGGSLRLSCAASGFTFSTYAMSWVRQAPGKRLEWVATISQGGTYTYYPDSVKGRFTISRDNAKNTLYLQMNSLRAEDTAVYYCARLIYYDYLDYWGQGTLVTVSS
VL: DIVMTQSPLSLPVTLGEPASISCRSSQSLENENKNLYLNWYLQKPGQSPQLLIYRVSNRFSGVPDRFSGSGSGTDFTLKISRVEAEDVGVYYCLQVTHVPWTFGPGTKVDIKR
notes: Human IgG2 / kappa constant regions; also called hMAb1-H4-type heavy chain + hMAb1-L2-type light chain
As for B1, in test [1], the binding result was “no binding (tested: 10 µg/mL)”.

B2: anti-ROBO4 mouse monoclonal antibody MAb1 (antibody, mouse IgG1, V domains shown)
VH: EVQLVESGGGLVKPGGSLKLSCAASGFTFSTYAMSWVRQTPEKRLEWVATISNGGTYTYYPDSVKGRFTISRDNAENTLYLQMSSLRSEDTAMYFCARLIYYDYLDYWGHGTTLTVSS
VL: DAVMTQTPLSLPVSLGDQASISCRSSQSLENSNGNTYLNWYFQKPGQSPQLLIYRVSNRFSGVLDRFSGSGSGTDFTLKISRVEAEDFGVYFCLQVTHVPWTFGGGTKLEIKR
notes: Mouse IgG1 (gamma1), kappa light chain, purified from hybridoma supernatant; also called parent antibody MAb1
B2: the binding result in test [2] is “binds”.
